Results from IntAct's records for PubMed 19853560.

B1: Phosphatidylinositol 3,4,5-trisphosphate 3-phosphatase and dual-specificity protein phosphatase daf-18 (Caenorhabditis elegans), G5EE01 (parent)
chain: MVTPPPDVPSTSTRSMARDLQENPNRQPGEPRVSEPYHNSIVERIRHIFRTAVSSNRCRTEYQNIDLDCAYITDRIIAIGYPATGIEANFRNSKVQTQQFLTRRHGKGNVKVFNLRGGYYYDADNFDGNVICFDMTDHHPPSLELMAPFCREAKEWLEADDKHVIAVHCKAGKGRTGVMICALLIYINFYPSPRQILDYYSIIRTKNNKGVTIPSQRRYIYYYHKLRERELNYLPLRMQLIGVYVERPPKTWGGGSKIKVEVGNGSTILFKPDPLIISKSNHQRERATWLNNCDTPNEFDTGEQKYHGFVSKRAYCFMVPEDAPVFVEGDVRIDIREIGFLKKFSDGKIGHVWFNTMFACDGGLNGGHFEYVDKTQPYIGDDTSIGRKNGMRRNETPMRKIDPETGNEFESPWQIVNPPGLEKHITEEQAMENYTNYGMIPPRYTISKILHEKHEKGIVKDDYNDRKLPMGDKSYTESGKSGDIRGVGGPFEIPYKAEEHVLTFPVYEMDRALKSKDLNNGMKLHVVLRCVDTRDSKMMEKSEVFGNLAFHNESTRRLQALTQMNPKWRPEPCAFGSKGAEMHYPPSVRYSSNDGKYNGACSENLVSDFFEHRNIAVLNRYCRYFYKQRSTSRSRYPRKFRYCPLIKKHFYIPADTDDVDENGQPFFHSPEHYIKEQEKIDAEKAAKGIENTGPSTSGSSAPGTIKKTEASQSDKVKPATEDELPPARLPDNVRRFPVVGVDFENPEEESCEHKTVESIAGFEPLEHLFHESYHPNTAGNMLRQDYHTDSEVKIAEQEAKAFVDQLLNGQGVLQEFMKQFKVPSDNSFADYVTGQAEVFKAQIALLEQSEDFQRVQANAEEVDLEHTLGEAFERFGHVVEESNGSSKNPKALKTREQMVKETGKDTQKTRNHVLLHLEANHRVQIERRETCPELHPEDKIPRIAHFSENSFSDSNFDQAIYL
partner: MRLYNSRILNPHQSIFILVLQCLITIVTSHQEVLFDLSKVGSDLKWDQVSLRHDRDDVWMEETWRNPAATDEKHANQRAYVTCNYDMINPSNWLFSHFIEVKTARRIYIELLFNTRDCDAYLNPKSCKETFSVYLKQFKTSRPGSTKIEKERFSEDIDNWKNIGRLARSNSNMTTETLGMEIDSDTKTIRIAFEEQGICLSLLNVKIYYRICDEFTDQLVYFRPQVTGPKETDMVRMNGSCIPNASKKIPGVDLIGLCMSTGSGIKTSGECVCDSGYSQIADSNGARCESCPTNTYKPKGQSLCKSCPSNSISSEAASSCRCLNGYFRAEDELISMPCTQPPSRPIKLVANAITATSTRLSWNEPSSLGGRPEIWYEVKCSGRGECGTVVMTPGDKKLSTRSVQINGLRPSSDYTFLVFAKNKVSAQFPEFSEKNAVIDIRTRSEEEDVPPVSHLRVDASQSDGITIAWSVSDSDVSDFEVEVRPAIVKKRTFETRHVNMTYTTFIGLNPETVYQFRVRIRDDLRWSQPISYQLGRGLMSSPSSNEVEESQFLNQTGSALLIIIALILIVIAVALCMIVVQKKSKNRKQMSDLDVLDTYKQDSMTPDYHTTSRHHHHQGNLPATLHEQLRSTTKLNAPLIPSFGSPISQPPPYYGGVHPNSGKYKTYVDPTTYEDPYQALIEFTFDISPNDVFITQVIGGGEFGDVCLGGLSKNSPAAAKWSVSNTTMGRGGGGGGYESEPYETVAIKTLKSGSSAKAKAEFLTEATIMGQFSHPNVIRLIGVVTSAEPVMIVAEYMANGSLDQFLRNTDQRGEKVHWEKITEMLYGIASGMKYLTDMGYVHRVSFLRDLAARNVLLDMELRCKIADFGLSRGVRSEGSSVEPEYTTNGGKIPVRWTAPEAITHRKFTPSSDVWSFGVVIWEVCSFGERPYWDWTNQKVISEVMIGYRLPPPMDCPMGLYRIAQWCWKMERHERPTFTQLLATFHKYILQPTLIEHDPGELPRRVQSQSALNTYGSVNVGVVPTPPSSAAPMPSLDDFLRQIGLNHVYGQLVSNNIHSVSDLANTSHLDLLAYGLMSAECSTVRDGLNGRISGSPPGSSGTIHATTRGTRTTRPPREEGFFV

Variants of: B1
Conditions: with vab1_caeel vab-1, O61460
For D137A, the “effect of a mutation on the interaction” value was “increasing interaction”.
